In the RNAGym collection of RNA variant scans (doi:10.1021/acssynbio.7b00057):

B1: Pistol ribozyme (parent)
chain: GGGUCGUUGUUCCAUAAUCGCGUGGAUAUGGCACGCAAGUUUCUACCGGGCACCGUAAAUGUCCGACUGGAGCCGUUCGGGCGGCUAUAAACAGACCUCAGGCCCGAAGCGUGGCGGCACCUGCCGCCGGUGGUAAAAAAGAUCGGAAGAGCACACGUCU

Variants of: B1
Experiment: aptazyme ON/OFF ratio, guanine; higher = stronger switching; co-transcriptional cleavage with and without guanine

| Variant | aptazyme ON/OFF ratio |
| --- | --- |
| GGGUCGGUUCUCCAUAAUCGCGUGGAUAUGGCACGCAAGUUUCUACCGGGCACCGUAAAUGUCCGACUGGAGCCGUUCGGGCGGCUAUAAACAGACCUCAGGCCCGAAGCGUGGCGGCACCUGCCGCCGGUGGUAAAAAAGAUCGGAAGAGCACACGUCU [U7G G9U U10C] | 3.94 |
| GGGUCGGUUACCGAUAAUCGCGUGGAUAUGGCACGCAAGUUUCUACCGGGCACCGUAAAUGUCCGACUGGAGCCGUUCGGGCGGCUAUAAACAGACCUCAGGCCCGAAGCGUGGCGGCACCUGCCGCCGGUGGUAAAAAAGAUCGGAAGAGCACACGUCU [U7G G9U U10A U11C C13G] | 1.12 |
| GGGUCGGUUACCAAUAAUCGCGUGGAUAUGGCACGCAAGUUUCUACCGGGCACCGUAAAUGUCCGACUGGAGCCGUUCGGGCGGCUAUAAACAGACCUCAGGCCCGAAGCGUGGCGGCACCUGCCGCCGGUGGUAAAAAAGAUCGGAAGAGCACACGUCU [U7G G9U U10A U11C C13A] | 1.35 |
| GGGUCGGUUACCUAUAAUCGCGUGGAUAUGGCACGCAAGUUUCUACCGGGCACCGUAAAUGUCCGACUGGAGCCGUUCGGGCGGCUAUAAACAGACCUCAGGCCCGAAGCGUGGCGGCACCUGCCGCCGGUGGUAAAAAAGAUCGGAAGAGCACACGUCU [U7G G9U U10A U11C C13U] | 1.18 |
| GGGUCGGUUCUAGAUAAUCGCGUGGAUAUGGCACGCAAGUUUCUACCGGGCACCGUAAAUGUCCGACUGGAGCCGUUCGGGCGGCUAUAAACAGACCUCAGGCCCGAAGCGUGGCGGCACCUGCCGCCGGUGGUAAAAAAGAUCGGAAGAGCACACGUCU [U7G G9U U10C C12A C13G] | 1.21 |
| GGGUCGGUUCUAUAUAAUCGCGUGGAUAUGGCACGCAAGUUUCUACCGGGCACCGUAAAUGUCCGACUGGAGCCGUUCGGGCGGCUAUAAACAGACCUCAGGCCCGAAGCGUGGCGGCACCUGCCGCCGGUGGUAAAAAAGAUCGGAAGAGCACACGUCU [U7G G9U U10C C12A C13U] | 1.35 |
| GGGUCGGUUCUAAAUAAUCGCGUGGAUAUGGCACGCAAGUUUCUACCGGGCACCGUAAAUGUCCGACUGGAGCCGUUCGGGCGGCUAUAAACAGACCUCAGGCCCGAAGCGUGGCGGCACCUGCCGCCGGUGGUAAAAAAGAUCGGAAGAGCACACGUCU [U7G G9U U10C C12A C13A] | 1.42 |
| GGGUCGGUUAGUCAUAAUCGCGUGGAUAUGGCACGCAAGUUUCUACCGGGCACCGUAAAUGUCCGACUGGAGCCGUUCGGGCGGCUAUAAACAGACCUCAGGCCCGAAGCGUGGCGGCACCUGCCGCCGGUGGUAAAAAAGAUCGGAAGAGCACACGUCU [U7G G9U U10A U11G C12U] | 1.4 |
| GGGUCGGUUAGACAUAAUCGCGUGGAUAUGGCACGCAAGUUUCUACCGGGCACCGUAAAUGUCCGACUGGAGCCGUUCGGGCGGCUAUAAACAGACCUCAGGCCCGAAGCGUGGCGGCACCUGCCGCCGGUGGUAAAAAAGAUCGGAAGAGCACACGUCU [U7G G9U U10A U11G C12A] | 1.13 |
| GGGUCGGUUAGGCAUAAUCGCGUGGAUAUGGCACGCAAGUUUCUACCGGGCACCGUAAAUGUCCGACUGGAGCCGUUCGGGCGGCUAUAAACAGACCUCAGGCCCGAAGCGUGGCGGCACCUGCCGCCGGUGGUAAAAAAGAUCGGAAGAGCACACGUCU [U7G G9U U10A U11G C12G] | 1.26 |
| GGGUCGGUUCUGCAUAAUCGCGUGGAUAUGGCACGCAAGUUUCUACCGGGCACCGUAAAUGUCCGACUGGAGCCGUUCGGGCGGCUAUAAACAGACCUCAGGCCCGAAGCGUGGCGGCACCUGCCGCCGGUGGUAAAAAAGAUCGGAAGAGCACACGUCU [U7G G9U U10C C12G] | 1.37 |
| GGGUCGGUUCUUCAUAAUCGCGUGGAUAUGGCACGCAAGUUUCUACCGGGCACCGUAAAUGUCCGACUGGAGCCGUUCGGGCGGCUAUAAACAGACCUCAGGCCCGAAGCGUGGCGGCACCUGCCGCCGGUGGUAAAAAAGAUCGGAAGAGCACACGUCU [U7G G9U U10C C12U] | 1.51 |
| GGGUCGGUUCUACAUAAUCGCGUGGAUAUGGCACGCAAGUUUCUACCGGGCACCGUAAAUGUCCGACUGGAGCCGUUCGGGCGGCUAUAAACAGACCUCAGGCCCGAAGCGUGGCGGCACCUGCCGCCGGUGGUAAAAAAGAUCGGAAGAGCACACGUCU [U7G G9U U10C C12A] | 2.03 |
| GGGUCGGUUACUAAUAAUCGCGUGGAUAUGGCACGCAAGUUUCUACCGGGCACCGUAAAUGUCCGACUGGAGCCGUUCGGGCGGCUAUAAACAGACCUCAGGCCCGAAGCGUGGCGGCACCUGCCGCCGGUGGUAAAAAAGAUCGGAAGAGCACACGUCU [U7G G9U U10A U11C C12U C13A] | 1.39 |
| GGGUCGGUUACUGAUAAUCGCGUGGAUAUGGCACGCAAGUUUCUACCGGGCACCGUAAAUGUCCGACUGGAGCCGUUCGGGCGGCUAUAAACAGACCUCAGGCCCGAAGCGUGGCGGCACCUGCCGCCGGUGGUAAAAAAGAUCGGAAGAGCACACGUCU [U7G G9U U10A U11C C12U C13G] | 1.27 |
| GGGUCGGUUACUUAUAAUCGCGUGGAUAUGGCACGCAAGUUUCUACCGGGCACCGUAAAUGUCCGACUGGAGCCGUUCGGGCGGCUAUAAACAGACCUCAGGCCCGAAGCGUGGCGGCACCUGCCGCCGGUGGUAAAAAAGAUCGGAAGAGCACACGUCU [U7G G9U U10A U11C C12U C13U] | 1.39 |
| GGGUCGGUUCUUUAUAAUCGCGUGGAUAUGGCACGCAAGUUUCUACCGGGCACCGUAAAUGUCCGACUGGAGCCGUUCGGGCGGCUAUAAACAGACCUCAGGCCCGAAGCGUGGCGGCACCUGCCGCCGGUGGUAAAAAAGAUCGGAAGAGCACACGUCU [U7G G9U U10C C12U C13U] | 1.34 |
| GGGUCGGUUCUUGAUAAUCGCGUGGAUAUGGCACGCAAGUUUCUACCGGGCACCGUAAAUGUCCGACUGGAGCCGUUCGGGCGGCUAUAAACAGACCUCAGGCCCGAAGCGUGGCGGCACCUGCCGCCGGUGGUAAAAAAGAUCGGAAGAGCACACGUCU [U7G G9U U10C C12U C13G] | 1.31 |

| Variant | aptazyme ON/OFF ratio |
| --- | --- |
| GGGUCGGUUCUUAAUAAUCGCGUGGAUAUGGCACGCAAGUUUCUACCGGGCACCGUAAAUGUCCGACUGGAGCCGUUCGGGCGGCUAUAAACAGACCUCAGGCCCGAAGCGUGGCGGCACCUGCCGCCGGUGGUAAAAAAGAUCGGAAGAGCACACGUCU [U7G G9U U10C C12U C13A] | 1.38 |
| GGGUCGGUUAGGAAUAAUCGCGUGGAUAUGGCACGCAAGUUUCUACCGGGCACCGUAAAUGUCCGACUGGAGCCGUUCGGGCGGCUAUAAACAGACCUCAGGCCCGAAGCGUGGCGGCACCUGCCGCCGGUGGUAAAAAAGAUCGGAAGAGCACACGUCU [U7G G9U U10A U11G C12G C13A] | 1.04 |
| GGGUCGGUUAGGUAUAAUCGCGUGGAUAUGGCACGCAAGUUUCUACCGGGCACCGUAAAUGUCCGACUGGAGCCGUUCGGGCGGCUAUAAACAGACCUCAGGCCCGAAGCGUGGCGGCACCUGCCGCCGGUGGUAAAAAAGAUCGGAAGAGCACACGUCU [U7G G9U U10A U11G C12G C13U] | 1.25 |
| GGGUCGGUUAGGGAUAAUCGCGUGGAUAUGGCACGCAAGUUUCUACCGGGCACCGUAAAUGUCCGACUGGAGCCGUUCGGGCGGCUAUAAACAGACCUCAGGCCCGAAGCGUGGCGGCACCUGCCGCCGGUGGUAAAAAAGAUCGGAAGAGCACACGUCU [U7G G9U U10A U11G C12G C13G] | 1.14 |
| GGGUCGGUUCUGAAUAAUCGCGUGGAUAUGGCACGCAAGUUUCUACCGGGCACCGUAAAUGUCCGACUGGAGCCGUUCGGGCGGCUAUAAACAGACCUCAGGCCCGAAGCGUGGCGGCACCUGCCGCCGGUGGUAAAAAAGAUCGGAAGAGCACACGUCU [U7G G9U U10C C12G C13A] | 1.27 |
| GGGUCGGUUCUGGAUAAUCGCGUGGAUAUGGCACGCAAGUUUCUACCGGGCACCGUAAAUGUCCGACUGGAGCCGUUCGGGCGGCUAUAAACAGACCUCAGGCCCGAAGCGUGGCGGCACCUGCCGCCGGUGGUAAAAAAGAUCGGAAGAGCACACGUCU [U7G G9U U10C C12G C13G] | 1.22 |
| GGGUCGGUUCUGUAUAAUCGCGUGGAUAUGGCACGCAAGUUUCUACCGGGCACCGUAAAUGUCCGACUGGAGCCGUUCGGGCGGCUAUAAACAGACCUCAGGCCCGAAGCGUGGCGGCACCUGCCGCCGGUGGUAAAAAAGAUCGGAAGAGCACACGUCU [U7G G9U U10C C12G C13U] | 1.29 |
| GGGUCGGUUAGCAAUAAUCGCGUGGAUAUGGCACGCAAGUUUCUACCGGGCACCGUAAAUGUCCGACUGGAGCCGUUCGGGCGGCUAUAAACAGACCUCAGGCCCGAAGCGUGGCGGCACCUGCCGCCGGUGGUAAAAAAGAUCGGAAGAGCACACGUCU [U7G G9U U10A U11G C13A] | 1.13 |
| GGGUCGGUUAGCGAUAAUCGCGUGGAUAUGGCACGCAAGUUUCUACCGGGCACCGUAAAUGUCCGACUGGAGCCGUUCGGGCGGCUAUAAACAGACCUCAGGCCCGAAGCGUGGCGGCACCUGCCGCCGGUGGUAAAAAAGAUCGGAAGAGCACACGUCU [U7G G9U U10A U11G C13G] | 1.15 |
| GGGUCGGUUAGCUAUAAUCGCGUGGAUAUGGCACGCAAGUUUCUACCGGGCACCGUAAAUGUCCGACUGGAGCCGUUCGGGCGGCUAUAAACAGACCUCAGGCCCGAAGCGUGGCGGCACCUGCCGCCGGUGGUAAAAAAGAUCGGAAGAGCACACGUCU [U7G G9U U10A U11G C13U] | 1.29 |
| GGGUCGGUUAGCCAUAAUCGCGUGGAUAUGGCACGCAAGUUUCUACCGGGCACCGUAAAUGUCCGACUGGAGCCGUUCGGGCGGCUAUAAACAGACCUCAGGCCCGAAGCGUGGCGGCACCUGCCGCCGGUGGUAAAAAAGAUCGGAAGAGCACACGUCU [U7G G9U U10A U11G] | 3.03 |
| GGGUCGGUUAGUGAUAAUCGCGUGGAUAUGGCACGCAAGUUUCUACCGGGCACCGUAAAUGUCCGACUGGAGCCGUUCGGGCGGCUAUAAACAGACCUCAGGCCCGAAGCGUGGCGGCACCUGCCGCCGGUGGUAAAAAAGAUCGGAAGAGCACACGUCU [U7G G9U U10A U11G C12U C13G] | 1.12 |
| GGGUCGGUUAGUAAUAAUCGCGUGGAUAUGGCACGCAAGUUUCUACCGGGCACCGUAAAUGUCCGACUGGAGCCGUUCGGGCGGCUAUAAACAGACCUCAGGCCCGAAGCGUGGCGGCACCUGCCGCCGGUGGUAAAAAAGAUCGGAAGAGCACACGUCU [U7G G9U U10A U11G C12U C13A] | 1.23 |
| GGGUCGGUUAGUUAUAAUCGCGUGGAUAUGGCACGCAAGUUUCUACCGGGCACCGUAAAUGUCCGACUGGAGCCGUUCGGGCGGCUAUAAACAGACCUCAGGCCCGAAGCGUGGCGGCACCUGCCGCCGGUGGUAAAAAAGAUCGGAAGAGCACACGUCU [U7G G9U U10A U11G C12U C13U] | 1.27 |
| GGGUCGGUUAGAGAUAAUCGCGUGGAUAUGGCACGCAAGUUUCUACCGGGCACCGUAAAUGUCCGACUGGAGCCGUUCGGGCGGCUAUAAACAGACCUCAGGCCCGAAGCGUGGCGGCACCUGCCGCCGGUGGUAAAAAAGAUCGGAAGAGCACACGUCU [U7G G9U U10A U11G C12A C13G] | 1.11 |
| GGGUCGGUUAGAUAUAAUCGCGUGGAUAUGGCACGCAAGUUUCUACCGGGCACCGUAAAUGUCCGACUGGAGCCGUUCGGGCGGCUAUAAACAGACCUCAGGCCCGAAGCGUGGCGGCACCUGCCGCCGGUGGUAAAAAAGAUCGGAAGAGCACACGUCU [U7G G9U U10A U11G C12A C13U] | 1.12 |
| GGGUCGGUUAGAAAUAAUCGCGUGGAUAUGGCACGCAAGUUUCUACCGGGCACCGUAAAUGUCCGACUGGAGCCGUUCGGGCGGCUAUAAACAGACCUCAGGCCCGAAGCGUGGCGGCACCUGCCGCCGGUGGUAAAAAAGAUCGGAAGAGCACACGUCU [U7G G9U U10A U11G C12A C13A] | 1.11 |
| GGGUCGGUUACUCAUAAUCGCGUGGAUAUGGCACGCAAGUUUCUACCGGGCACCGUAAAUGUCCGACUGGAGCCGUUCGGGCGGCUAUAAACAGACCUCAGGCCCGAAGCGUGGCGGCACCUGCCGCCGGUGGUAAAAAAGAUCGGAAGAGCACACGUCU [U7G G9U U10A U11C C12U] | 1.32 |
